# Patent US20220389085A1 (BIONOXX, published 2022)
# B1: A56-02B08 (Ab16) (antibody, V domains shown)
# VH: QVQLQQSGPGLVKPSQTLSLTCAISGDSVSSNSAAWNWIRQSPSRGLEWLGRTYYRSKWYNDYAVSVKSRITINPDTSKNQFSLQLNSVTAVDTAVYYCAKSYAGPISYYYYGLDVWGQGTTVTVSS
# VL: QSALTQPASVSGSPGQSVTISCTGTSSDIGRYNLVSWYQQHPGKAPKLMIYGGSKRPSGVSNRFSGSNSDNTASLTISGLRAEDEADYYCSSYASSSTPYVFGTGTKVTVL
# Tests used:
# [1] = biological target: T1, protein A56 of the oncolytic virus OTS-412 (vaccinia virus (OTS-412), UniProt P08714 17-315); test: flow cytometry, PC3 cells treated with OTS-412
# T1 construct: also called OTS-412-A56; protein A56 variant
# T1 chain: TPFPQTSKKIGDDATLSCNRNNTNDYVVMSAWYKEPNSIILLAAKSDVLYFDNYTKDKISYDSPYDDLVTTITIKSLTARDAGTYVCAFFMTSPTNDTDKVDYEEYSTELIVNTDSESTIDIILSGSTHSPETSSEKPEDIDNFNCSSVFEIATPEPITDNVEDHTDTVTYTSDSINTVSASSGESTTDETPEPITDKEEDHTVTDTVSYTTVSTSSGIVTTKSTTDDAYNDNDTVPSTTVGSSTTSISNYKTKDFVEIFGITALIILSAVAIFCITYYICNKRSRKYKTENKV
# [2] = biological target: T1, protein A56 of the oncolytic virus …; test: flow cytometry, MCF7 cells treated with OTS-412
# [3] = biological target: T2, protein A56 of the oncolytic virus WOTS-418 (vaccinia virus (WOTS-418, Western …, UniProt Q01218 17-314)); test: flow cytometry, PC3 cells treated with WOTS-418
# T2 construct: also called WOTS-418-A56; protein A56 variant
# [4] = biological target: T2, protein A56 of the oncolytic virus …; test: flow cytometry, MCF7 cells treated with WOTS-418
# [5] = biological target: T1, protein A56 of the oncolytic virus …; test: flow cytometry, PC3 cells treated with OTS-412 (overlay, FIG. 74)
# [6] = biological target: T2, protein A56 of the oncolytic virus …; test: flow cytometry, PC3 cells treated with WOTS-418 (overlay, FIG. 75)
binder,measurement,setting,value
B1,"binding signal (flow cytometry, %)",[1],≥ 70%
same,"binding signal (flow cytometry, %)",[2],≥ 80%
same,"binding signal (flow cytometry, %)",[3],≥ 70%
same,"binding signal (flow cytometry, %)",[4],≥ 80%
same,"binding signal (flow cytometry, %)",[5],≥ 60%
same,"binding signal (flow cytometry, %)",[6],≥ 60%
